Legend:
[1] = target: CTLA4-mFc fusion protein (human); test: competitive ELISA; competitor B7-1-hFc coated 1 ug/ml; CTLA4-mFc 0.3 ug/ml
[2] = target: CTLA4-mFc fusion protein (human); test: competitive ELISA; competitor B7-1-hFc coated 1 ug/ml; CTLA4-mFc 0.3 ug/ml; antibody 3 ug/ml; replicate 1
[3] = target: CTLA4-mFc fusion protein (human); test: competitive ELISA; competitor B7-1-hFc coated 1 ug/ml; CTLA4-mFc 0.3 ug/ml; antibody 3 ug/ml; replicate 2
[4] = target: CTLA4-mFc fusion protein (human); test: competitive ELISA; competitor B7-1-hFc coated 1 ug/ml; CTLA4-mFc 0.3 ug/ml; antibody 0 (no antibody); replicate 1
[5] = target: CTLA4-mFc fusion protein (human); test: competitive ELISA; competitor B7-1-hFc coated 1 ug/ml; CTLA4-mFc 0.3 ug/ml; antibody 0 (no antibody); replicate 2
[6] = target: CTLA4-mFc fusion protein (human); test: competitive ELISA; competitor B7-1-hFc coated 1 ug/ml; CTLA4-mFc 0.3 ug/ml; antibody dilution 1:3 from 3 ug/ml; replicate 1
[7] = target: CTLA4-mFc fusion protein (human); test: competitive ELISA; competitor B7-1-hFc coated 1 ug/ml; CTLA4-mFc 0.3 ug/ml; antibody dilution 1:3 from 3 ug/ml; replicate 2
[8] = target: CTLA4-mFc fusion protein (human); test: competitive ELISA; competitor B7-1-hFc coated 1 ug/ml; CTLA4-mFc 0.3 ug/ml; antibody dilution 1:9 from 3 ug/ml; replicate 1
[9] = target: CTLA4-mFc fusion protein (human); test: competitive ELISA; competitor B7-1-hFc coated 1 ug/ml; CTLA4-mFc 0.3 ug/ml; antibody dilution 1:9 from 3 ug/ml; replicate 2
[10] = target: CTLA4-mFc fusion protein (human); test: competitive ELISA; competitor B7-1-hFc coated 1 ug/ml; CTLA4-mFc 0.3 ug/ml; antibody dilution 1:27 from 3 ug/ml; replicate 1
[11] = target: CTLA4-mFc fusion protein (human); test: competitive ELISA; competitor B7-1-hFc coated 1 ug/ml; CTLA4-mFc 0.3 ug/ml; antibody dilution 1:27 from 3 ug/ml; replicate 2
[12] = target: CTLA4-mFc fusion protein (human); test: competitive ELISA; competitor B7-1-hFc coated 1 ug/ml; CTLA4-mFc 0.3 ug/ml; antibody dilution 1:81 from 3 ug/ml; replicate 1
[13] = target: CTLA4-mFc fusion protein (human); test: competitive ELISA; competitor B7-1-hFc coated 1 ug/ml; CTLA4-mFc 0.3 ug/ml; antibody dilution 1:81 from 3 ug/ml; replicate 2
[14] = target: CTLA4-mFc fusion protein (human); test: competitive ELISA; competitor B7-1-hFc coated 1 ug/ml; CTLA4-mFc 0.3 ug/ml; antibody dilution 1:243 from 3 ug/ml; replicate 1
[15] = target: CTLA4-mFc fusion protein (human); test: competitive ELISA; competitor B7-1-hFc coated 1 ug/ml; CTLA4-mFc 0.3 ug/ml; antibody dilution 1:243 from 3 ug/ml; replicate 2
[16] = target: CTLA4-mFc fusion protein (human); test: competitive ELISA; competitor B7-1-hFc coated 1 ug/ml; CTLA4-mFc 0.3 ug/ml; antibody dilution 1:729 from 3 ug/ml; replicate 1
[17] = target: CTLA4-mFc fusion protein (human); test: competitive ELISA; competitor B7-1-hFc coated 1 ug/ml; CTLA4-mFc 0.3 ug/ml; antibody dilution 1:729 from 3 ug/ml; replicate 2

Sequence of CTLA4-mFc fusion protein (human) (chain, as listed by the source limits assumed): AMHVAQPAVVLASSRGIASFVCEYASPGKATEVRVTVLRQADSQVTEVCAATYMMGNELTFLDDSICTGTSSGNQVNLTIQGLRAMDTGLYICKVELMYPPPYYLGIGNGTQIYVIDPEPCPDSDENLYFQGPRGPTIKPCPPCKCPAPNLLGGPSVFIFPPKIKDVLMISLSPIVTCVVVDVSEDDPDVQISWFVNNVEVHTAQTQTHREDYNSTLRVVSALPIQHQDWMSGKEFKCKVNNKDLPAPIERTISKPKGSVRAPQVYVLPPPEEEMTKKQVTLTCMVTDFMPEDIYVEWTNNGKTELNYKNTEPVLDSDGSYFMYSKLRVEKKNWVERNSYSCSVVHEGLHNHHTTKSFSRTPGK

control antibody 10D1 (anti-CTLA4 antibody)
EC50 [1]: 1.12 nM | absorbance at 450 nm [2]: 0.147 | absorbance at 450 nm [3]: 0.14 | absorbance at 450 nm [4]: 0.888 | absorbance at 450 nm [5]: 0.732 | absorbance at 450 nm [6]: 0.144 | absorbance at 450 nm [7]: 0.133 | absorbance at 450 nm [8]: 0.351 | absorbance at 450 nm [9]: 0.312 | absorbance at 450 nm [10]: 0.442 | absorbance at 450 nm [11]: 0.365 | absorbance at 450 nm [12]: 0.572 | absorbance at 450 nm [13]: 0.663 | absorbance at 450 nm [14]: 0.556 | absorbance at 450 nm [15]: 0.554 | absorbance at 450 nm [16]: 0.726 | absorbance at 450 nm [17]: 0.692

From patent US20190177414A1
